Reference: the supplement of paper PMC10126150
± gives the standard deviation of the averaged measurements.

Tested on: ATP
Experiment: switch fluorescence ratio, 500 uM ATP over buffer (Cy3 cluster intensity, sum of 5 cycles each) (fold (ratio)); higher = stronger signal-on switching upon ATP binding; sequences stand for … in TCGTCGGCAGCGTCAGATGTGTATAAGAGACAGTTTTTTTTTTTTTTTTTTTTTTTTT…TC
Details: aptamer strand: ATP DNA aptamer (quencher-CACCTGGGGGAGTATTGCGGAGGAAGG + anchor), 100 nM annealed; ATP concentration: 500 uM
Method in brief: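 The fluorescence ratio divides summed target-cycle Cy3 intensity by summed buffer-cycle Cy3 intensity for each cluster and is averaged per switch-domain sequence. Cy3-labelled switching-strand clusters on a modified Illumina MiSeq flow-cell were annealed to 100 nM quencher-labelled ATP aptamer, then imaged in selection buffer and again after 15 min with 500 uM ATP at 22 °C. Five such cycles were run, with NaOH stripping and re-annealing between them, and clusters outside 100-1000 RFU were excluded.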
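Further: ATP exposure 15 min at 22 °C before imaging.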

Row | Sequence | switch fluorescence ratio
1 | AAAGAAATTC | 1.02 ± 0.068
2 | TGTGTCACCT | 1.09 ± 0.025
3 | CTATTTGACT | 0.9576 ± 0.0028
4 | TTGTAAATTT | 1.012 ± 0.01
5 | CTTATTTGGG | 0.997 ± 0.031
6 | AAGCGCTTTT | 0.979 ± 0.058
7 | ACCGGGCCGA | 1.04 ± 0.016
8 | TATAAAGGGG | 1 ± 0.025
9 | CATGTACGTG | 1.0359 ± 9.4e-05
10 | TCGGGCTGTG | 1.02 ± 0.05
11 | GGCGGAAGAA | 1.07 ± 0.013
12 | TACTAAGAAT | 2.35 ± 1.9
13 | CAGTAAAGGA | 1.02 ± 0.053
14 | TGGTTTTAGC | 0.9886 ± 0.0028
15 | TAGTGGGAAT | 0.968 ± 0.032
16 | GTTTTCACTC | 1.0086 ± 0.00085
17 | AGGTGAGAAT | 1.16 ± 0.035
18 | GTGGTTATGC | 1.02 ± 0.033
19 | GAAGGATAGG | 0.975 ± 0.029
20 | GCTCGATTGG | 0.9766 ± 0.0057
21 | ATAGTGGGTC | 1.04 ± 0.025
22 | GTAAGTATGT | 1.01 ± 0.011
23 | TTAGCGAGGA | 1.03 ± 0.046
24 | TCGGGGATGA | 1.067 ± 0.0092
25 | AGGTGCAATT | 1.47 ± 0.54

Row | Sequence | switch fluorescence ratio
26 | GTTTGGGTTT | 0.992 ± 0.031
27 | ATGTCAAAAG | 1 ± 0.022
28 | ACATTAAAAA | 1.26 ± 0.013
29 | TCGGCAGTGG | 1.03 ± 0.027
30 | TATGGGTAGC | 0.986 ± 0.019
31 | AATGGGGAAA | 1 ± 0.028
32 | GATAATAGGG | 0.99 ± 0.045
33 | GGTCGTCTTG | 0.996 ± 0.04
34 | AGGGAGATAG | 0.986 ± 0.016
35 | TCCTTTGGTT | 0.9865 ± 0.0034
36 | GGGGGCGCAT | 0.96 ± 0.066
37 | GGCTTCACGA | 1.07 ± 0.014
38 | TGATAGGTGC | 1.19 ± 0.014
39 | TGGGGAAAAT | 1.033 ± 0.0065
40 | AGTCAGGGGG | 1 ± 0.028
41 | ATCGTATTCA | 1.01 ± 0.027
42 | AAATATACGA | 1.16 ± 0.15
43 | ATTGGTATGA | 0.994 ± 0.018
44 | GTATTGGGCT | 0.98036 ± 0.00097
45 | GTGATAGGGC | 0.999 ± 0.025
46 | AGGGGGTCGG | 1.01 ± 0.03
47 | CCAGGGGTGC | 1.48 ± 0.05
48 | TAAGCAGTTA | 1.08 ± 0.12
49 | TAGGGGTAGA | 1.017 ± 0.0054
50 | AGAATGGGTG | 1.05 ± 0.036
